Our source for the abundance fitness values is the Human Domainome abundance scans (Beltran et al. 2025).

± gives the uncertainty stated by the source.

B1: Activity-dependent neuroprotector homeobox protein, residues 770 to 810; numbered along this chain, Q9H2P0 (parent)
chain: FLTKYFNKQPYPTRREIEKLAASLWLWKSDIASHFSNKRKK

The variants in this data set derive from B1. In words: abundance fitness (aPCA) (normalised: wild type 0, dead -1); higher = more abundant; growth selection in yeast, the domain comes from the species named. To be noted: Homo sapiens.
For the variant FLTKYFNKQPYPTRREIEKLAASLWLWKSDIASYFSNKRKK [H34Y], the abundance fitness was -0.151 ± 0.065.
Then FLTKYFNKQPYPTRREIEKLAASLWLWKSDIASAFSNKRKK [H34A], with 0.006 ± 0.047; and FDTKYFNKQPYPTRREIEKLAASLWLWKSDIASHFSNKRKK [L2D], with -0.822 ± 0.12.
Then FHTKYFNKQPYPTRREIEKLAASLWLWKSDIASHFSNKRKK [L2H], with -0.738 ± 0.17; and FLTKYFNKQPYPTRREIEKLAASLWLWKMDIASHFSNKRKK [S29M], with -0.124 ± 0.14; and FLTKYFNKQPYPTRREIEKLAASLWLWKHDIASHFSNKRKK [S29H], with 0.077 ± 0.076.
With FLTKYFNKQPYPTRREIEKLAASLWLWKCDIASHFSNKRKK [S29C], the abundance fitness was -0.206 ± 0.11.
In the case of RLTKYFNKQPYPTRREIEKLAASLWLWKSDIASHFSNKRKK [F1R], the abundance fitness was -1.12 ± 0.33.
Then PLTKYFNKQPYPTRREIEKLAASLWLWKSDIASHFSNKRKK [F1P], with -0.375 ± 0.29; and FLTKYFNKQPYPTRREIEKLAASLWLWDSDIASHFSNKRKK [K28D], with -0.514 ± 0.12.
Then FLCKYFNKQPYPTRREIEKLAASLWLWKSDIASHFSNKRKK [T3C], with -0.536 ± 0.081; and FLHKYFNKQPYPTRREIEKLAASLWLWKSDIASHFSNKRKK [T3H], with -0.325 ± 0.058.
With FLAKYFNKQPYPTRREIEKLAASLWLWKSDIASHFSNKRKK [T3A], the abundance fitness was -0.303 ± 0.055.
Consider FLTKYFNKQPNPTRREIEKLAASLWLWKSDIASHFSNKRKK [Y11N], for which the abundance fitness came to 0.124 ± 0.059.
Regarding FLTKYFNKQPVPTRREIEKLAASLWLWKSDIASHFSNKRKK [Y11V], the abundance fitness worked out at 0.031 ± 0.053.
For FLTKYFNKQPEPTRREIEKLAASLWLWKSDIASHFSNKRKK [Y11E], the abundance fitness came to 0.02 ± 0.071.
Then FLTKYFNKQPYPTRRIIEKLAASLWLWKSDIASHFSNKRKK [E16I], with 0.009 ± 0.23; and FLTKYFNKQPYPTRRYIEKLAASLWLWKSDIASHFSNKRKK [E16Y], with -0.096 ± 0.091.
For the variant FLTKYFNKQGYPTRREIEKLAASLWLWKSDIASHFSNKRKK [P10G], the abundance fitness was -0.129 ± 0.084.
Then FLTKYFNKQWYPTRREIEKLAASLWLWKSDIASHFSNKRKK [P10W], with 0.059 ± 0.14; and FLTKYFNKQIYPTRREIEKLAASLWLWKSDIASHFSNKRKK [P10I], with -0.114 ± 0.073; and FLTKYFNKQPYPTRREIEKLAASLWLWKSDTASHFSNKRKK [I31T], with -0.061 ± 0.062.
Then FLTKYFNKQPYPTRREIEKLAASLWLWKSDNASHFSNKRKK [I31N], with -0.153 ± 0.072; and FLTKYFNKQPYPTRREIEKLAASLWLWKSDFASHFSNKRKK [I31F], with -0.197 ± 0.07.
For FLTKYFNKQPYPTRREIEKLAASLWLWKSDAASHFSNKRKK [I31A], the abundance fitness was found to be 0.109 ± 0.064.
Turning to FLTKYFNKQPYPTRREIEKLAASLWLWKSDEASHFSNKRKK [I31E], the abundance fitness is -0.23 ± 0.091.
For FLTQYFNKQPYPTRREIEKLAASLWLWKSDIASHFSNKRKK [K4Q], the abundance fitness is -0.646 ± 0.29.
Then FLTCYFNKQPYPTRREIEKLAASLWLWKSDIASHFSNKRKK [K4C], with -0.698 ± 0.18; and FLTGYFNKQPYPTRREIEKLAASLWLWKSDIASHFSNKRKK [K4G], with -1.07 ± 0.24; and FLTVYFNKQPYPTRREIEKLAASLWLWKSDIASHFSNKRKK [K4V], with -0.815 ± 0.43.
Then FLTTYFNKQPYPTRREIEKLAASLWLWKSDIASHFSNKRKK [K4T], with -0.877 ± 0.29; and FLTNYFNKQPYPTRREIEKLAASLWLWKSDIASHFSNKRKK [K4N], with -0.419 ± 0.18.
Then FLTKYFNKQPYPTRREREKLAASLWLWKSDIASHFSNKRKK [I17R], with -0.294 ± 0.056.
On to FLTKYFNKQPYPTRREFEKLAASLWLWKSDIASHFSNKRKK [I17F], for which the abundance fitness is -0.205 ± 0.079.
Then FLTKYFNKQPYPTRREQEKLAASLWLWKSDIASHFSNKRKK [I17Q], with -0.89 ± 0.14.
Then FLTKYFNKQPYPTRREYEKLAASLWLWKSDIASHFSNKRKK [I17Y], with -0.1 ± 0.086.
Then FLTKYFNEQPYPTRREIEKLAASLWLWKSDIASHFSNKRKK [K8E], with -0.634 ± 0.14; and FLTKYFNYQPYPTRREIEKLAASLWLWKSDIASHFSNKRKK [K8Y], with -0.554 ± 0.1; and FLTKYFNFQPYPTRREIEKLAASLWLWKSDIASHFSNKRKK [K8F], with -1.13 ± 0.18.
As for FLTKYFNQQPYPTRREIEKLAASLWLWKSDIASHFSNKRKK [K8Q], the abundance fitness is -0.858 ± 0.12.
Then FLTKYFNVQPYPTRREIEKLAASLWLWKSDIASHFSNKRKK [K8V], with -1.15 ± 0.12; and FLTKYFNKQPYPTREEIEKLAASLWLWKSDIASHFSNKRKK [R15E], with -0.02 ± 0.085; and FLTKYFNKQPYPTRGEIEKLAASLWLWKSDIASHFSNKRKK [R15G], with -0.088 ± 0.061.
Then FLTKYFNKQPYPTRTEIEKLAASLWLWKSDIASHFSNKRKK [R15T], with -0.005 ± 0.066; and FLTKYFNKQPYPTRREIEKLAESLWLWKSDIASHFSNKRKK [A22E], with -0.162 ± 0.11; and FLTKYFNKQPYPTRREIEKLADSLWLWKSDIASHFSNKRKK [A22D], with -0.25 ± 0.11.
With FLTKYFNKQPYPTRREIEKLAMSLWLWKSDIASHFSNKRKK [A22M], the abundance fitness is -0.084 ± 0.071.
Then FLTKYFNKQPYPTRREIEKLAGSLWLWKSDIASHFSNKRKK [A22G], with -0.058 ± 0.062.
Then FLTKYFNKQPYPTRREIEKLAQSLWLWKSDIASHFSNKRKK [A22Q], with 0.045 ± 0.065; and FLTKYFNKQPYPTRREIEKLAASLWLWKSDIAMHFSNKRKK [S33M], with -0.061 ± 0.064.
On to FLTKYFNKQPYPTRREIEKLAASLWLWKSDIAFHFSNKRKK [S33F], for which the abundance fitness was -0.244 ± 0.073.
For the variant FLTKYFNKQPYPTRREIEKLAASLWLWKSDIAIHFSNKRKK [S33I], the abundance fitness is -0.149 ± 0.098.
As for FLTKYFNKQPYPTRREIEKLAASLWLWKSDIAAHFSNKRKK [S33A], the abundance fitness came out at 0.014 ± 0.058.
With FLTKYFNKQPYPTRREIEKLAASLWLWKSDIACHFSNKRKK [S33C], the abundance fitness was -0.058 ± 0.06.
Then FLTKYFNKQPYPTRREIEKLRASLWLWKSDIASHFSNKRKK [A21R], with -0.021 ± 0.063; and FLTKYFNKQPYPTRREIEKLQASLWLWKSDIASHFSNKRKK [A21Q], with -0.328 ± 0.17.
Then FLTKYFNKQPYPTRREIEKLSASLWLWKSDIASHFSNKRKK [A21S], with -0.012 ± 0.072; and FLTKYFNKQPYPTRREIEKLAASLWLWKSDIASHFSNKRFK [K40F], with -0.098 ± 0.082; and FLTKYFNKQPYPTRREIEKLAASLWLWKSDIASHFSNHRKK [K38H], with -0.112 ± 0.065.
Then FLTKYFNKQPYPTRREIEKLAASLWLWKSDIASHFSNCRKK [K38C], with -0.193 ± 0.1; and FLTKYFNKQPYPTRREIEKLAASLWLWKSDIASHFSNERKK [K38E], with -0.327 ± 0.085.
